{
  "source": "patent US20180044422A1",
  "about": "“TREATING SOLID TUMOR BY TARGETING DECTIN-1 SIGNALING” (New York University, priority 2016, published 2018)",
  "molecules": {"B1": {"name": "Galectin-9: recombinant Galectin-9 (R&D Systems), lectin identified as Dectin-1 ligand (protein)", "chain": "MALFSAQSPYINPIIPFTGPIQGGLQEGLQVTLQGTTKSFAQRFVVNFQNSFNGNDIAFHFNPRFEEGGYVVCNTKQNGQWGPEERKMQMPFQKGMPEFELCFLVQRSEFKVMVNKKFVQYQHRVPYHLVDTIAVSGCLKLSFITFQNSAAPVQHVFSTVQFSQPVQFPRTPKGRKQKTQNFRPAHQAPMAQTTIHMVHSTPGQMFSTPGIPPVVYPTPAYTIPFYTPIPNGLYPSKSIMISGNVLPDATRFHINLRCGGDIAFHLNPRFNENAVVRNTQINNSWGQEERSLLGRMPFSRGQSFSVWIICEGHCFKVAVNGQHMCEYYHRLKNLQDINTLEVAGDIQLTHVQT"}, "B2": {"name": "Galectin-3: recombinant Galectin-3 (Biolegend) coated on ELISA plates (protein, UniProt P16110 2-264, looked up)", "Galectin-3": "ADSFSLNDALAGSGNPNPQGYPGAWGNQPGAGGYPGAAYPGAYPGQAPPGAYPGQAPPGAYPGQAPPSAYPGPTAPGAYPGPTAPGAYPGQPAPGAFPGQPGAPGAYPQCSGGYPAAGPYGVPAGPLTVPYDLPLPGGVMPRMLITIMGTVKPNANRIVLDFRRGNDVAFHFNPRFNENNRRVIVCNTKQDNNWGKEERQSAFPFESGKPFKIQVLVEADHFKVAVNDAHLLQYNHRMKNLREISQLGISGDITLTSANHAMI"}, "B3": {"name": "Galectin-4: recombinant Galectin-4 (Biolegend) coated on ELISA plates (protein, UniProt Q8K419 1-326, looked up)", "Galectin-4": "MAYVPAPGYQPTYNPTLPYKRPIPGGLSVGMSVYIQGMAKENMRRFHVNFAVGQDDGADVAFHFNPRFDGWDKVVFNTMQSGQWGKEEKKKSMPFQKGKHFELVFMVMPEHYKVVVNGNSFYEYGHRLPVQMVTHLQVDGDLELQSINFLGGQPAAAPYPGAMTIPAYPAGSPGYNPPQMNTLPVMTGPPVFNPRVPYVGALQGGLTVRRTIIIKGYVLPTARNFVINFKVGSSGDIALHLNPRIGDSVVRNSFMNGSWGAEERKVAYNPFGPGQFFDLSIRCGMDRFKVFANGQHLFDFSHRFQAFQMVDTLEINGDITLSYVQI"}, "B4": {"name": "IL-12: cytokine added to BMDM cultures (protein, UniProt P43431 23-215; P43432 23-335, looked up)", "Interleukin-12 subunit alpha": "RVIPVSGPARCLSQSRNLLKTTDDMVKTAREKLKHYSCTAEDIDHEDITRDQTSTLKTCLPLELHKNESCLATRETSSTTRGSCLPPQKTSLMMTLCLGSIYEDLKMYQTEFQAINAALQNHNHQQIILDKGMLVAIDELMQSLNHNGETLRQKPPVGEADPYRVKMKLCILLHAFSTRVVTINRVMGYLSSA", "Interleukin-12 subunit beta": "MWELEKDVYVVEVDWTPDAPGETVNLTCDTPEEDDITWTSDQRHGVIGSGKTLTITVKEFLDAGQYTCHKGGETLSHSHLLLHKKENGIWSTEILKNFKNKTFLKCEAPNYSGRFTCSWLVQRNMDLKFNIKSSSSSPDSRAVTCGMASLSAEKVTLDQRDYEKYSVSCQEDVTCPTAEETLPIELALEARQQNKYENYSTSFFIRDIIKPDPPKNLQMKPLKNSQVEVSWEYPDSWSTPHSYFSLKFFVRIQRKKEKMKETEEGCNQKGAFLVEKTSTEVQCKGGNVCVQAQDRYYNSSCSKWACVPCRVRS"}},
  "key": {"[1]": {"target": "T1, Dectin-1 IgG Fc (Mus musculus, UniProt Q6QLQ4)", "T1 construct": "purchased InvivoGen fc-mdec1a", "T1 sequence (Q6QLQ4 71-244 limits assumed)": "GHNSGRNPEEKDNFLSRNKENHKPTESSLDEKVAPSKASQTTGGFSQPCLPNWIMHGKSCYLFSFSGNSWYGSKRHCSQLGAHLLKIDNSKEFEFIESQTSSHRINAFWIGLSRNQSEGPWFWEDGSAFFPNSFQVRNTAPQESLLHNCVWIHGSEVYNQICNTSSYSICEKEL", "test": "Protein G bead / flow cytometry Galectin-9-Dectin-1 binding", "conditions": "recombinant Galectin-9, flow cytometry", "experimental": "(§1) To investigate if Galectin-9 can bind with Dectin-1, Protein G-magnet beads (2 ml; Dynabeads) were loaded with Dectin-1 IgG Fc (1 mg) or control IgG Fc before washing and blocking. Subsequently, beads were incubated with recombinant Galectin-9 ([…]; R&D Systems) for 30 min, washed, and stained with PE-conjugated anti-Galectin-9 (Biolegend, San Diego Calif.). Galectin-9 specific staining was determined by flow cytometry. To investigate the interaction between Galectin-9 and Dectin-1 by ELISA, plates (Maxisorp, Nunc, St. Louis, Mo.) were coated with recombinant mouse Galectin-9 ([…]; R&D Systems, Minneapolis, Minn.), Galectin-3, or Galectin-4 (both […]; Biolegend) for 16 hours at 4° C., blocked with 1% BSA/PBS for 1 hour, and incubated with increasing doses of Dectin-1 IgG Fc or control IgG Fc for 2 hours. The Galectin-bound Dectin-1 IgG Fc was detected with anti-IgG-HRP. […] Dectin-1 signaling was measured by detection of secreted embryonic alkaline phosphatase. […] Syk phosphorylation was measured by flow cytometry at 3 hours.\n(§2) Non-pathogen derived Dectin-1 ligands have not been well-characterized. […] Bead-IgG Fc complexes were incubated with recombinant Galectin-9 and then labeled with a fluorescently-conjugated αGalectin-9 mAb and tested for fluorescence by flow cytometry. […]"}, "[2]": {"target": "T2, murine Dectin-1 (Mus musculus, UniProt Q6QLQ4)", "T2 construct": "purchased InvivoGen fc-mdec1a", "T2 sequence (Q6QLQ4 71-244 limits assumed)": "T1 sequence (Q6QLQ4 71-244 limits assumed)", "test": "Galectin-coated ELISA with murine Dectin-1 IgG Fc", "format": "binding", "conditions": "galectin-coated plates; Galectin-3/-4/-9 comparison at 2.5 μg/ml Dectin-1 IgG Fc", "experimental": "(§3) To investigate if Galectin-9 can bind with Dectin-1, Protein G-magnet beads (2 ml; Dynabeads) were loaded with Dectin-1 IgG Fc (1 mg) or control IgG Fc before washing and blocking. Subsequently, beads were incubated with recombinant Galectin-9 ([…]; R&D Systems) for 30 min, washed, and stained with PE-conjugated anti-Galectin-9 (Biolegend, San Diego Calif.). Galectin-9 specific staining was determined by flow cytometry. To investigate the interaction between Galectin-9 and Dectin-1 by ELISA, plates (Maxisorp, Nunc, St. Louis, Mo.) were coated with recombinant mouse Galectin-9 ([…]; R&D Systems, Minneapolis, Minn.), Galectin-3, or Galectin-4 (both […]; Biolegend) for 16 hours at 4° C., blocked with 1% BSA/PBS for 1 hour, and incubated with increasing doses of Dectin-1 IgG Fc or control IgG Fc for 2 hours. The Galectin-bound Dectin-1 IgG Fc was detected with anti-IgG-HRP. For affinity precipitation experiments, protein G-beads were loaded with Dectin-1 IgG Fc and were then incubated with the extract of 6 month old KC pancreata. Bead-bound precipitates were resuspended with loading buffer, resolved by SDS-PAGE under reduced conditions for western blotting using mAbs specific for Galectin-9. To determine whether Galectin-9 induces Dectin-1 signaling, the Dectin-1 reporter HEK293 cell line^16 (Invivogen) was treated with recombinant Galectin-9 (1-10 μg/ml; R&D Systems), d-Zymosan (1-10 μg/ml), or Curdlan (10-100 μg/ml; both Invivogen). Dectin-1 signaling was measured by detection of secreted embryonic alkaline phosphatase. In other experiments, WT and Dectin-1^−/− splenic macrophages were treated in vitro with recombinant Galectin-9 (10 ug/ml). Syk phosphorylation was measured by flow cytometry at 3 hours.\nas §2"}, "[3]": {"system": "Dectin-1", "test": "Syk phosphorylation in WT and Dectin-1-/- macrophages", "format": "cell-based, mouse", "conditions": "10 ug/ml for 3 hours, WT vs Dectin-1-/- macrophages, flow cytometry", "experimental": "as §3, with “To determine whether Galectin-9 induces Dectin-1 signaling, the Dectin-1 reporter HEK293 cell line^16 (Invivogen) was treated with recombinant Galectin-9 (1-10 μg/ml; R&D Systems), d-Zymosan (1-10 μg/ml), or Curdlan (10-100 μg/ml; both Invivogen).” left out, “In other experiments, WT and Dectin-1^−/− splenic macrophages were treated in vitro with recombinant Galectin-9 (10 ug/ml).” left out"}, "[4]": {"system": "human Dectin-1", "sequence (Q9BXN2 114-247 limits assumed)": "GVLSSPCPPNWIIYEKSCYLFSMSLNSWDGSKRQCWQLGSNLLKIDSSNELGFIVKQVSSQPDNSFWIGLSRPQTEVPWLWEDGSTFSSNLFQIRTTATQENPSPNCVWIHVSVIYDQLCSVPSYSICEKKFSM", "test": "Galectin-9-coated ELISA with human Dectin-1 IgG Fc", "format": "binding", "conditions": "Galectin-9 coated plates, increasing doses", "experimental": "as §1, §2"}, "[5]": {"system": "Dectin-1", "test": "Dectin-1 reporter HEK293 cell line (secreted embryonic alkaline phosphatase)", "format": "cell-based", "conditions": "low and high doses (1-10 μg/ml)", "experimental": "as §3, with “To determine whether Galectin-9 induces Dectin-1 signaling, the Dectin-1 reporter HEK293 cell line^16 (Invivogen) was treated with recombinant Galectin-9 (1-10 μg/ml; R&D Systems), d-Zymosan (1-10 μg/ml), or Curdlan (10-100 μg/ml; both Invivogen).” left out, “In other experiments, WT and Dectin-1^−/− splenic macrophages were treated in vitro with recombinant Galectin-9 (10 ug/ml).” left out"}, "[6]": {"system": "bone-marrow derived macrophages (BMDM)", "test": "Dectin-1 expression in bone-marrow derived macrophages", "format": "cell-based, mouse", "conditions": "cytokine added to day 8 BMDM cultures for 24h"}},
  "data": [
    {"molecule": "B1", "values": [
      {"measurement": "binding to bead-bound Dectin-1 IgG Fc", "setting": "[1]", "result": "avidly ligated"},
      {"measurement": "binding of murine Dectin-1 IgG Fc on ELISA", "setting": "[2]", "result": "dose-dependent manner"},
      {"measurement": "Syk phosphorylation", "setting": "[3]", "result": "activated Syk in a Dectin-1-dependent manner"},
      {"measurement": "binding of human Dectin-1 IgG Fc on ELISA", "setting": "[4]", "result": "dose-dependent manner"},
      {"measurement": "Dectin-1 activation (NF-κB signaling) in reporter cells", "setting": "[5]", "result": "induced NF-κB signaling"}
    ]},
    {"molecule": "B2", "values": [
      {"measurement": "binding of murine Dectin-1 IgG Fc on ELISA", "setting": "[2]", "result": "did not avidly bind"}
    ]},
    {"molecule": "B3", "values": [
      {"measurement": "binding of murine Dectin-1 IgG Fc on ELISA", "setting": "[2]", "result": "did not avidly bind"}
    ]},
    {"molecule": "B4", "values": [
      {"measurement": "Dectin-1 expression in BMDM", "setting": "[6]", "result": "did not influence Dectin-1 expression"}
    ]}
  ]
}
